What was measured:
NdhH-His6 = target: T1, NdhH-His6 (Synechocystis sp. PCC 6803, UniProt P27724 1-394); test: pull-down; GST-NdhM on glutathione-Sepharose 4B resin as bait, His-tagged Ndh subunits as prey; 2 h at 4 °C in 20 mM Tris-HCl pH 7.5, 100 mM NaCl, 0.1 mM EDTA, 0.2% Triton, 10% glycerol; washed five times with 300 mM NaCl, 0.5% Nonidet P-40; eluates blotted with anti-His antibody; settings: both partners purified
T1 construct: NdhH subunit of NDH-1, Synechocystis sp; PCC 6803; fragment containing ndhH cloned into pET28a; also called His-tagged NdhH; source: E. coli BL21(DE3) pLysS, purified (nickel column)
T1 sequence (looked up): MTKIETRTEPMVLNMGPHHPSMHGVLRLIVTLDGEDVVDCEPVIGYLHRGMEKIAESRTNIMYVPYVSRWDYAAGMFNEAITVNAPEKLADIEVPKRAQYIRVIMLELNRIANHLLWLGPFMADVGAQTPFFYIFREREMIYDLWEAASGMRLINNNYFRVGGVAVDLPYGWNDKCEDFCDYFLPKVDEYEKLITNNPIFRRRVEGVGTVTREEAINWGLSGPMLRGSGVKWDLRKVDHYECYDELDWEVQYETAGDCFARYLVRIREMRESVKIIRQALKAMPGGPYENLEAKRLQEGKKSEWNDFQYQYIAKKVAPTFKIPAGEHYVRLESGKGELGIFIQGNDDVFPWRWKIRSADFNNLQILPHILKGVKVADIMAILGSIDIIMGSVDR

NdhI-His6 = target: T2, NdhI-His6 (Synechocystis sp. PCC 6803, UniProt P26525 1-193); test: as above; settings: both partners purified
T2 construct: NdhI subunit of NDH-1, Synechocystis sp; PCC 6803; fragment containing ndhI cloned into pET28a; also called His-tagged NdhI; source: E. coli BL21(DE3) pLysS, purified (nickel column)
T2 sequence (P26525 whole entry, the tested form may be a part): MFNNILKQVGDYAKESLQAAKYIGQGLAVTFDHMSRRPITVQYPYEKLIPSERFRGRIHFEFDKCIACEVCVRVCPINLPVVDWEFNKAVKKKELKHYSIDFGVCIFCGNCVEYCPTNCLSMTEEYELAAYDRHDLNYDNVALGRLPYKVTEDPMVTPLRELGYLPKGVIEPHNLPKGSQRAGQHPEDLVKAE

B1: GST-NdhM (natural protein, Synechocystis sp. PCC 6803, UniProt P74338 1-121, looked up)
chain: MLVKSTTRHVRIFSAEVQGNELIPSNNVLTMDVDPDNEFVWNEDALQQVYRRFDELVESYSGEDLTDYNLRRIGSDLEHFIRDLLQAGKVSYNLDCRVLNYSMGLPKVENQETAGKYWLDN
notes: NdhM subunit of NDH-1, Synechocystis sp; PCC 6803, gene slr1623 (ndhM); fragment containing ndhM cloned into pGEX-4T-1; also called recombinant NdhM fused with GST; NdhM fused to GST; source: E. coli BL21(DE3) pLysS, purified (glutathione-Sepharose 4B column)
NdhH-His6
  binding result: binds
NdhI-His6
  binding result: binds

Source: PMC4786724, “NdhM Subunit Is Required for the Stability and the Function of NAD(P)H Dehydrogenase Complexes Involved in CO2 Uptake in Synechocystis sp. Strain PCC 6803* ^([image sbox.jpg])” (The Journal of Biological Chemistry, 2015)
